The source of these data is patent US20230002489A1 (SHANGHAI EPIMAB BIOTHERAPEUTICS, published 2023).

Residue numbers refer to the chain shown, from its start. Where only a bound is given, the exact number is not on record here.

For experiment [1], the target named is T1, BCMA on NCI-H929 cells (human, UniProt Q02223 1-184).
T1 construct: whole, on cells; also called BCMA-expressing NCI-H929 cells; BCMA-expressing target cells
T1 sequence (looked up): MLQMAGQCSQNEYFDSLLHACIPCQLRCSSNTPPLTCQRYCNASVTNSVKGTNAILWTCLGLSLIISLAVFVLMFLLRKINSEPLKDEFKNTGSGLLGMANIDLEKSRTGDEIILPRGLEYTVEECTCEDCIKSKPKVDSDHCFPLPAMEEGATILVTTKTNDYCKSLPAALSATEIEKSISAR
Nature of the experiment: flow cytometry on NCI-H929 cells, MFI. In general terms: In flow cytometry, cells or beads pass a laser one at a time.

Experiment [2] concerns the target T2, human CD3 on the surface of Jurkat cells (human, UniProt P07766 23-207; P09693 23-182; P04234 22-171).
T2 construct: whole, on cells; Endogenous CD3 complex of the Jurkat T cell line; also called cell surface CD3 target on Jurkat cells; CD3-expressing Jurkat cells
Nature of the experiment: flow cytometry on Jurkat/NFAT/luc cells, MFI against antibody conc. (nM).

Experiment [3] has as its target T1, BCMA on NCI-H929 cells. Nature of the experiment: flow cytometry on NCI-H929 cells, Mean fluorescence against antibody conc. (nM). How it is done:
Binding activity of the chimeric bispecific BCMA/CD3 FIT-Ig antibodies was tested via flow cytometry with a human CD3/TCR complex transfected CHO cell line (CHOK1/CD3/TCR cells) and BCMA-expressing NCI-H929 cells. Briefly, 5×10⁵ cells in FACS buffer were seeded into 96 well plates. Cells were centrifuged at 400×g for 5 minutes and supernatants were discarded. For each well, 100 μl serially diluted FIT-Ig or FIT-Fab antibodies were then added and mixed with the cells. Following incubation for 40 minutes at 4° C., plates were washed several times to remove excess antibodies. Secondary antibody (goat anti-huIgG kappa chain specific) was then added and incubated with cells at room temperature for 20 minutes. After another round of centrifugation and washing, cells were resuspended with FACS buffer for reading on a CytoFLEX Flow Cytometer. Results were analyzed and plotted with GraphPad Prism 5.0 software.

Experiment [4] addresses T3, recombinant huCD3εγ/Fc fusion protein (fusion protein heterodimer) (human).
T3 construct: also called huCD3/Fc dimer; heterodimeric CD3εγ/Fc fusion protein
Nature of the experiment: SPR, Biacore T200, 25 C; antigen/Fc amine-coupled to the chip, FIT-Ig injected.

Experiment [5] concerns the target T4, cynoCD3εγ/Fc fusion protein (cynomolgus monkey, UniProt Q95LI5 22-117; Q95LI7 23-113).
T4 construct: also called cynomolgus monkey CD3ε/γ heterodimer-Fc fusion protein; not shown: linker and Fc not described for the cynomolgus construct
T4 sequence (looked up) 1: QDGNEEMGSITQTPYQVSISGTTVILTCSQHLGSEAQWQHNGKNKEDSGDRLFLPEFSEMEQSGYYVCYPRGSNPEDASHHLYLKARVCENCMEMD
T4 sequence (looked up) 2: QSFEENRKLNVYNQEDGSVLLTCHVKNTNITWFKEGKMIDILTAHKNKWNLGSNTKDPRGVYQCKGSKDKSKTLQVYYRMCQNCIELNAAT
The experiment is described as above.

Experiment [6] deals with T5, cynomolgus BCMA(ECD)/Fc target polypeptide (cynomolgus).
T5 construct: extracellular domain; also called Cyno BCMA (ECD); cynoBCMA/Fc
Described as above.

For experiment [7], the target named is T2, human CD3 on the surface of Jurkat cells. Nature of the experiment: flow cytometry on Jurkat cells, Median-APC against antibody conc. (nM).
The target of experiment [8] is T6, recombinant human BCMA extracellular domain/Fc dimer (human).
T6 construct: also called Human BCMA (ECD); human BCMA(ECD)/Fc
Nature of the experiment: SPR, Biacore T200, 25 C; antigen/Fc amine-coupled to the chip, FIT-Ig injected.

In experiment [9] the target is T1, BCMA on NCI-H929 cells. Nature of the experiment: cell-based or functional assay.
Experiment [10] addresses T7, BCMA on HEK293F-BCMA-NF-kB-luc cells (clone 1H2) (UniProt Q02223 1-184, limits assumed).
T7 sequence (looked up): T1 sequence (looked up)
Nature of the experiment: cell-based or functional assay.

The target of experiment [11] is T6, recombinant human BCMA extracellular …. Nature of the experiment: SPR, Biacore T200, 25 C; antibody captured on anti-mouse IgG Fc, BCMA(ECD)/Fc injected. How it is done:
(§1) Briefly, goat anti-mouse IgG Fc antibody was directly immobilized across a biosensor chip, and antibody samples were injected over reaction matrices at a flow rate of 5 μl/min. Mouse anti-BCMA IgG test antibody was injected over the immobilized surface and captured by the immobilized anti-Fc antibodies. Human and cynomolgus BCMA(ECD)/Fc target polypeptides were then injected over the captured mouse anti-BCMA IgG surface. The association and dissociation rate constants, kₒₙ (M⁻¹s⁻¹) and koff (s⁻¹), respectively, were determined with a continuous flow rate of 30 μl/min. Rate constants were derived by making kinetic binding measurements at five different concentrations of target BCMA(ECD) polypeptide. The equilibrium dissociation constant KD (M) of the reaction between antibodies and related target proteins was then calculated from the kinetic rate constants using the formula KD=koff/kₒₙ. Kinetic constants were determined by processing and fitting the data to a 1:1 binding model using Biacore analysis software.
On the technique in general: SPR reads the build-up and loss of mass on a sensor chip optically.

Experiment [12] addresses T5, cynomolgus BCMA(ECD)/Fc target …. The description is as above. How it is done:
as §1

T2 sequence (P07766 23-207, chain 1 of 3): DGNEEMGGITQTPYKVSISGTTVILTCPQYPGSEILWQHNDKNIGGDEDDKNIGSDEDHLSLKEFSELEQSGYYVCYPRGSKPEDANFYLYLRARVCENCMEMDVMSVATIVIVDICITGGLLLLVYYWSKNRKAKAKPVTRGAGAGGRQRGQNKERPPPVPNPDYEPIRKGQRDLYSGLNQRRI
T2 sequence (P09693 23-182, chain 2 of 3): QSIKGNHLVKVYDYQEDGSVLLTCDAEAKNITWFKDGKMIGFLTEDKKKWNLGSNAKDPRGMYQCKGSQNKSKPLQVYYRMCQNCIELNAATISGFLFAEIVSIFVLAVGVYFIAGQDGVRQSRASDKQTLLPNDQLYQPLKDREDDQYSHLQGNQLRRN
T2 sequence (P04234 22-171, chain 3 of 3): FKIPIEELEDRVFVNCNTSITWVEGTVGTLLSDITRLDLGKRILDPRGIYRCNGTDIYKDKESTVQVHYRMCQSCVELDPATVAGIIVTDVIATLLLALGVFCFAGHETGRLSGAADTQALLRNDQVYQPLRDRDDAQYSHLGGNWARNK
T3 sequence (chain, as listed by the source limits assumed, chain 1 of 2): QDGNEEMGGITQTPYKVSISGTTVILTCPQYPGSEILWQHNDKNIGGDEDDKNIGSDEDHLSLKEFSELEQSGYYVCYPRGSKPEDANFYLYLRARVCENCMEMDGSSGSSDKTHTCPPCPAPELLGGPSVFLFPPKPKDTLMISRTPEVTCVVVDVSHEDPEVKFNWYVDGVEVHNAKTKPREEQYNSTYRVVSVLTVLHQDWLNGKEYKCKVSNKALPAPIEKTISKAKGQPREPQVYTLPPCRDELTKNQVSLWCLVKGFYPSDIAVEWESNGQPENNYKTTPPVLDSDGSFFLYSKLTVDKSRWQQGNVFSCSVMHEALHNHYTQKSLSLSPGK
T3 sequence (chain, as listed by the source limits assumed, chain 2 of 2): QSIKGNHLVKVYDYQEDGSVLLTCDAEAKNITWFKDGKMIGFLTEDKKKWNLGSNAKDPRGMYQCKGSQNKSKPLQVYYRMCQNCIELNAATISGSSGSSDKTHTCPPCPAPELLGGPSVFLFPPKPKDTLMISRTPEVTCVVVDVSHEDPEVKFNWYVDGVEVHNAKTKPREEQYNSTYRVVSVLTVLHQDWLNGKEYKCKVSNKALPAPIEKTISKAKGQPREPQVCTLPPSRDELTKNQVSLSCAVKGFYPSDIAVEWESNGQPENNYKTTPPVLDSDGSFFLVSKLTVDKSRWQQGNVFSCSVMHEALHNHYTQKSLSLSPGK

B1: HuEM0006-01-24 (antibody, human IgG1, kappa, L234A L235A, V domains shown)
VH: EVQLVQSGAEVKKPGASVKVSCKASGFSFTNYYVHWMRQAPGQGLEWMGWISPGSDNTKYNEKFKGRVTMTRDTSISTAYMELSRLRSDDTAVYYCARDDYGNYYFDYWGQGTTVTVSS
VL: DIVMTQSPDSLAVSLGERATINCKSSQSLLNARTRKNYLAWYQQKPGQPPKLLIYWASTRESGVPDRFSGSGSGTDFTLTISSLQAEDVAVYYCKQSYILRTFGGGTKVEIKR
notes: Humanized variant of mAbCD3-001; also called HuEM1006-01-24; monospecific anti-CD3 IgG
For orientation: EC50 (read off the curve) means the concentration needed to bring the measured effect to its halfway point. A low value points to a more potent agent. On to B1, for which the binding result in experiment [1] is on record as “no binding (tested: 100 nM)”. In experiment [2], the “EC50 (read off the curve)” value was around 0.5 nM.

B2: huEM0006-01-27 (antibody, human IgG1, kappa, L234A L235A, V domains shown)
VH: B1 VH with M48I, M70L, R72A
VL: B1 VL
Take B2: the binding result in experiment [1] is “no binding (tested: 100 nM)”; in experiment [2], “binds”.

B3: FIT1006-6a-Fab (bispecific antibody, not shown: small tags and cut ends)
chain 1: not shown
chain 2: EVQLVQSGAEVKKPGASVKVSCKASGYTFTNYYVHWMRQAPGQGLEWIGWISPGSDNTKYNEKFKGRVTLTADTSISTAYMELSRLRSDDTAVYYCARDDYGNYYFDYWGQGTTVTVSSASTKGPSVFPLAPSSKSTSGGTAALGCLVKDYFPEPVTVSWNSGALTSGVHTFPAVLQSSGLYSLSSVVTVPSSSLGTQTYICNVNHKPSNTKVDKKVEPKSC
chain 3: DIQMTQSPASLSASVGETVTVTCGASENIYGALNWYQRKQGKSPQLLIYGATNLADGISSRFSGSGSGRQFSLKISSLLPDDVATYFCQSVLTTPWTFGGGTKLEIKRTVAAPSVFIFPPSDEQLKSGTASVVCLLNNFYPREAKVQWKVDNALQSGNSQESVTEQDSKDSTYSLSSTLTLSKADYEKHKVYACEVTHQGLSSPVTKSFNRGEC
notes: FIT-Fab made from FIT1006-6a by papain digestion (Fc removed)
Consider B3, for which the binding result in experiment [3] is “binds”.

B4: FIT1006-31a(D-T) (bispecific antibody, human IgG1, kappa, L234A L235A)
chain 1: not shown
chain 2: B3 chain 2 with Y27F, T28S, I48M, L70M, A72R
chain 3: DIQMTQSPSSLSASVGDRVTITCGASENIYGALNWYQQKPGKAPKLLIYGATNLATGIPSRFSGSGSGRDFTLTISSLQPEDFATYYCQSVLTTPWTFGQGTKLEIKRTVAAPSVFIFPPSDEQLKSGTASVVCLLNNFYPREAKVQWKVDNALQSGNSQESVTEQDSKDSTYSLSSTLTLSKADYEKHKVYACEVTHQGLSSPVTKSFNRGEC
On to B4, for which the “EC50 (read off the curve)” value in [2] was around 1 nM.

B5: FIT1006-4a-Fab (bispecific antibody, not shown: small tags and cut ends)
chain 1: not shown
chain 2: B3 chain 2 with Y27F, T28S, I48M, L70M, A72R
chain 3: B3 chain 3
Consider B5, for which the binding result in experiment [3] is “binds”.

B6: FIT1006-8a-Fab (bispecific antibody, not shown: small tags and cut ends)
chain 1: not shown
chain 2: B3 chain 2 with M37V
chain 3: B3 chain 3
notes: FIT-Fab made from FIT1006-8a by papain digestion (Fc removed)
With B6, the binding result in experiment [3] is reported as “binds”.

B7: FIT1006-35a(D-T) (bispecific antibody, human IgG1, kappa, L234A L235A)
chain 1: not shown
chain 2: B3 chain 2 with Y27F, T28S
chain 3: B4 chain 3
Consider B7, for which the binding result in experiment [2] is reported as “binds”.

B8: FIT1006-31b (D-E) (bispecific antibody, human IgG1, kappa, L234A L235A)
chain 1: not shown
chain 2: EVQLVQSGAEVKKPGASVKVSCKASGYTFTNFWMHWVRQAPGQRLEWMGAFYPGNDDTYYNQKFKGRVTITADTSASTAYMELSSLRSEDMAVYYCARSGYYGSSDAMDYWGQGTTVTVSSASTKGPSVFPLAPSSKSTSGGTAALGCLVKDYFPEPVTVSWNSGALTSGVHTFPAVLQSSGLYSLSSVVTVPSSSLGTQTYICNVNHKPSNTKVDKKVEPKSC
chain 3: not shown
notes: Humanized BCMA/CD3 FIT-Ig, outer BCMA and inner CD3 Fab, no linkers
The term Kd denotes the concentration at which binding is half-saturated. The koff is a measure of how fast the partners let go of each other. What is called kon is the rate constant with which the complex forms. In the case of B8, in experiment [4], the equilibrium dissociation constant (Kd) came to 17.1 nM, the off-rate constant (koff) was 0.00574 s⁻¹ and the kon was found to be 337000 M⁻¹ s⁻¹. In experiment [5], this molecule displayed a Kd of 10.8 nM, an off-rate constant (koff) of 0.00632 s⁻¹ and a kon of 583000 M⁻¹ s⁻¹. In [6], this molecule gave a Kd of 1.61 nM, a koff of 0.000167 s⁻¹ and a kon of 104000 M⁻¹ s⁻¹.

B9: FIT1006-35b(D-T) (bispecific antibody, human IgG1, kappa, L234A L235A)
chain 1: not shown
chain 2: B8 chain 2
chain 3: not shown
notes: Humanized BCMA/CD3 FIT-Ig, outer BCMA and inner CD3 Fab
Consider B9, for which, in experiment [7], the binding result is “binds”.

B10: FIT1006-29b(D-A) (bispecific antibody, human IgG1, kappa, L234A L235A)
chain 1: not shown
chain 2: B8 chain 2 with T30P, M48I, R67K, V68A, I70L
chain 3: not shown
notes: as for B9
As to B10, the equilibrium dissociation constant (Kd) is 16.7 nM in experiment [4], 11.2 nM in [5], below 0.057 nM in experiment [8] and 1.09 nM in experiment [6]. Also, the koff was 0.00585 s⁻¹ in [4], 0.00607 s⁻¹ in experiment [5], below 5e-06 s⁻¹ in experiment [8] and 0.00021 s⁻¹ in experiment [6]. Besides, the association rate constant (kon) in [4] was 349000 M⁻¹ s⁻¹; in experiment [5], 541000 M⁻¹ s⁻¹; in experiment [8], 87800 M⁻¹ s⁻¹; in experiment [6], 192000 M⁻¹ s⁻¹.

B11: FIT1006-31b(D-T) (bispecific antibody, human IgG1, kappa, L234A L235A)
chain 1: not shown
chain 2: B8 chain 2
chain 3: not shown
notes: as for B9
In the case of B11, the “EC50 (read off the curve)” value in experiment [7] was around 3 nM. Also, in experiment [4], the dissociation constant Kd came out at 15.6 nM, the koff was 0.00572 s⁻¹ and the kon came out at 367000 M⁻¹ s⁻¹. In experiment [5], binding was put at a Kd of 11.4 nM, the dissociation rate constant (koff) is 0.00621 s⁻¹ and the kon was found to be 546000 M⁻¹ s⁻¹. In [6], this molecule returned an equilibrium dissociation constant (Kd) of 1.02 nM, a koff of 0.000191 s⁻¹ and a kon of 188000 M⁻¹ s⁻¹.

B12: mAbBCMA-002 (antibody, V domains shown)
VH: QIQLVQSGPELKKPGETVKISCKASGYSFTNYGLNWVKQAPGKGLKWMGWINTYSGHPTYVDDFKGRFAFSLETSASTAYLQINKLKNEDTSTYFCVREKDDGYRLGLDYWGQGTSVTVSS
VL: QIVLTQSPAIMSASPGEKVTMTCSASSSVSYMYWYQQRPGSSPRLWIYDTSNLVSGVPARFSGSRSGTSYSLTISGMEAEDAATYYCLQYSGYPYTFGGGTKLEIK
notes: Mouse anti-BCMA IgG from hybridoma
B12: in [9], the “EC50 of inhibition of BAFF-induced NF-kB phosphorylation in NCI-H929 cells (inhibition %), unit from the axis” value came to 34.8 nM. Also, the “EC50 of inhibition of the BAFF-induced NF-kB luciferase signal in HEK293F-BCMA-NF-kB-luc cells (inhibition %; the curve reaches only about 30 % at 100 nM), unit from the axis” value in [10] is 20.1 nM. Also, in [11], the Kd was determined as 13.8 nM, the off-rate constant (koff) worked out at 0.00292 s⁻¹ and the kon was found to be 212000 M⁻¹ s⁻¹. In experiment [12], this molecule gave a dissociation constant Kd of 7.55 nM, a koff of 0.000304 s⁻¹ and an on-rate (kon) of 40300 M⁻¹ s⁻¹.
